Assay: label from the status in PepcDB records

| Sequence | protein production |
| --- | --- |
| EEHRGEEILAVFDTAFGQLLAADPAAFRVKFRKMAASAFAFYRGTAGLFYRDLTEDPDFGDQHGGAYLDERTSRVWIHGDLHAENFGTYMDSTGRLIFNVNDFDEAYVGPFTWDLKRFAASVALIGYAKAFSDEQITELVRVY | failed |
| MHLRLRTKNGLITITVSQQCTIRELSEEIERKTGIEVAKQKILYGFPQRELRADADKPVESVLQSGDSLTVDKLSAETEQERTVESSPASTENAYVRRKVPDDNSCLFHAICYVFRSGSVAQLRHIISETVRLNPDLYTEAFLGKSNHEYSRWILLPETWGGAIELSILSKYFQTEISVFDIQTLRLDRYGEAENYEERVFLLYDGIHYDPIARAFLGASREYDVTVFKIWDNEALVGAKSVAEEANKNRQYTDLASFTLMCRNCGAKLKGETSAVEHAKQTGHTNFTEA | failed |
| MSGVKIAFIRHHDLWIKVDGKEKQLTKGEYITGPKWSYDGEWLAYVKGEKQNTLELYRLKDGKKVTPFHSEVSNYQWSPTENIIAFIFTGTLHTFKVEKKNADFENVSAGVGDYAWYPNGKKFLVSSEAHLLPTGWTGAQLYEVQKDAHMNPHKMKHLYALPNEHDDFLALVASGFQWSPDQKWISFLAVPTASWSADSNTLCLVRADGSRFEKVDQMLLNTQWFKWAPANNILAYIEGSGRVALENKHLKVKELPALQQNTFTPKGYVDWDFTWKNDNVIIVSRAKEAGIETPPEKRPLPSLYEIDSTSDEQHRITKPPHRQGDYHPLFMNKSNQLIWIRSDRKKADVWLAHKDGKHEMKWIENIDVPLEHHHHHH | failed |
| MNENTKVIKGRTGDWEMVLGLEVHAQVASKSKLFSGAAVGFGAGPNEQVSLVDAAMPGMLPVLNRFCVEQAVKTGLGLRAQINLKSRFDRKNYFYPDLPQGYQISQFDQPIVGEGVVSVERDDGTTFDVRIERLHLEQDAGKSLHDQDPNATYVDLNRAGTALMEIVSKPDMRTSEEAAAYVKKLRTILVYLGTCDGDMEKGNLRADVNVSVCRPGDYEKFRATGDFKHLGTRCEIKNVNSYRYIQQAIEYEARRQIEILEDGGKVDQETRLFDPTKGETRSMRSKEEAHDYRYFPDPDLLPLVLDPAWVKSIEETLPELPDAKKARLQSQYGLSAYDAGVLIIDADRADYFEAAAKGRDAKLVANWVTNELLAKLSAAGTEFTNSPLPHTDIAQLVELIENGTISSKIAKEVFEHMWAGEGRPAEIVEKRGLVQINDTGAIEKAIDDLIAGNPDKAEAVKDKPQALGWFVGQVMKATGGKANPGTVNELLRKKLGVE | failed |
| MLKILATQFNGKLQTLTKQEDELFDVVRLLAQALVGQGKVYLDAYGEFEGLYPMLSDGPDQMKRVTKIKDHKTLHAVDRVLIFTPDTERSDLLASLARYDAWHTPYSIITLGDVTETLERSIAPLALKFDKGLLPAEDGSRHGLPSLALGAFLLTHILTQLQEMTEEWE | not failed |
| MVEYDLSVIILNYNAKRFLEECINSIYENTKEIKFEVILVDNKSTDNSAEFIKEKFTGKEDFTFIESKVNCGFAAGNNKAIEVSKGRAVLLLNPDTVVNGNVIGETYKCLMKDDKVGVAGCKVLNPDGTLQLACRRMIPTPKDAFYKIFGLSKIFKNNKKFTRYNLTYASADEFIDVDSVSGSYLMIKKEVIDKIGYLDETFFMYGEEMDWCLRARKAGYIVRYCPVGTIIHYKGESSKQLSHKATYEFYRAMWIFYKKNNKGNIFLDSIVWLGVKFLLFIALIKLAILPKNRVGSKG | failed |
| MATFFLVSFLSFSKWKEKRQVGLWGPEAAVTEEEEEEAGARRSGPGLAGRRLRGKGRRGRVASPAGRPDTLSRRGAGERAGCLGAGDRGLRHSDRHSPLGRGRAAPGMATSRQTASPRTRMDYLYSCQVDAMHSGMSVTRLVTQPDVLPAHRRRDIKMAAPRSCVLWSYCGHGWSRLAGDCRLPGFRRSWLGATLSARSLSQEKRAAETHFGFETVSEKEKGGKVYQVFQSVARKYDLMNDMMSLGIHRAWKDLLIRKMHPLPGTQLLDVAGGTGDIAFRFLSYVQTQHERKQRRQLRTRQNLSWEEIARKYQSKEDPLGGSLVMVCDINREMLKVGKQKALARGHTADLCECDAKLVYTVSFSSRSFTQALQEAHRVLKPGGRFLCLEFSQVNDPLISRLYDLYSFQVIPVIGEVIAGDWKSYQYLVESIRKFPNQEEFKDMIEDAGFQKVTYESLTSGIVAIHSGFKL | failed |

From a protein production outcome set (Wang et al. 2014)
